Assays:
[1] = biological target: T1, HEK293T/mPD-L1 (Mus musculus, UniProt Q9EP73); assay: Flow cytometry PD-L1 binding activity assay of the nanobody coupling drug; conditions: 17 concentrations 100-0.0008 μg/mL
T1 construct: expressed in transfected cells; host or cells: HEK293T

[2] = test system: uninduced CT26 tumor cell; assay: Early CT26 subcutaneous tumor-bearing model (tumor volume<50 mm^3); format: in vivo, BALB/c mouse
Method: (§1) The uninduced CT26 tumor cell subcutaneous was inoculated into a female BALB/C mouse to construct a tumor-bearing mouse model in the two models, and the inoculation amount was 1×10^6 cells/; the mice were divided into two groups, and each group was 8 mice, that is, a blank control group mFc (the concentration was 10 mg/kg), and a coupling compound Nb16-SZU-101 group (the concentration was 10 mg/kg); and the administration dosage was 200 μL, and the administration manner was an abdominal administration. In the early model (the tumor volume was<50 mm^3), the drug was administered in Day 4, Day 7, Day 10, Day 13, Day 16, and the drug was administered for 5 times; in the late model (the tumor volume was greater than 200 mm^3), the drug was administered in Day 9, Day 12, Day 15, Day 17, and the drug was administered for 4 times. The tumor size was measured 2-3 times a week, and a tumor growth curve was drawn.

[3] = test system: CT26 tumor cells; assay: Re-tumor model with CT26 cells in mice with regressed tumor; format: in vivo, mouse; conditions: re-tumor 1 week after tumor faded
From the text: Moreover, in the early model, the coupling compound therapy will cause tumor regression of up to 62.5% tumor-bearing mice (FIG. 10B); in the late model, the compound drug will cause 12.5% tumor-bearing mice to have tumor regression (FIG. 10D).

[4] = test system: tumor immune microenvironment (CT26 subcutaneous tumors); assay: Tumor immunotyping analysis by flow cytometry after conjugate administration; format: in vivo, BALB/c mouse; conditions: compared to mFc group
Method: At a mouse anatomical endpoint of example 8.1, subcutaneous tumors were taken, 150 mg of tumor tissue was taken and cut into meat paste, and the meat paste was oscillated and digested at 180 rpm for 1.5 h at 37° C. in hyaluronidase and collagenase IV, and processed into a single cell suspension. The pretreated cell suspension was divided into two parts, one part was used for immunotyping analysis of macrophages and dendritic cells, and one part was used for immune typing analysis of T cells and NK cells.
The suspension treatment of macrophages and dendritic cell samples: the cells were treated with 2-4 mL sterile red blood cell lysis solution for 8 min and terminated with PBS buffer solution to remove red blood cells and fragments in the sample suspension; the cell sample was cleaned for use.
T cell and NK cell sample suspension treatment: the cells were centrifuged with lymphocyte separation liquid to obtain a lymphocyte separation layer, that is, the lymphocyte separation layer was a tumor lymphocyte suspension, and wascleaned for use.
The macrophages and dendritic cell samples and T cells and NK cell samples were sealed at 4° C. with an Fc receptor confining liquid for 1 hour, and non-specific staining caused by the Fc receptor was removed; cell surface protein staining is performed, specifically: M1 macrophages (FITC Rat Anti-Mouse CD45, PE-Cyanine7 Rat Anti-Mouse F4/80 and APC Rat anti-Mouse CD86), M2 macrophages (FITC RATw Anti-Mouse CD45 and PE-Cynine 7 RAT Anti-Mouse F4/80), dendritic cells (PE-Cy7 Anti-Mouse CD11c, BB515 Rat Anti-Mouse I-A/I-E, PE Hamster Anti-Mouse CD80, and APC Rat anti-Mouse CD86), CD4+T cells and CD8+T cells (FITC Hamster Anti-Mouse CD3e, PerCP-Cy™ 5.5 Rat Anti-Mouse CD4 and APC Rat Anti-Mouse CD8a), Treg cells (FITC Hamster Anti-Mouse CD3e, PerCP-CYy™ 5.5 Rat Anti-Mouse CD4 and PE Rat Anti-Mouse CD25), NK cells (CD3-FITC, CD49b-APC, CD69-PE), followed by dyeing on ice for 20 min.; then intracellular protein staining is performed, and after the cell is subjected to a fixed membrane rupture treatment, the cell is subjected to membrane rupture dyeing, specifically: M2 macrophages (MS CD206 Alexa 647 and ANTI-MOUSE LAP PE), functional T cells(ANTI-MOUSE GRANZYME B (NGZB) PE) containing granzyme, functional T cells (PE Rat Anti-Mouse IFN-γ) containing IFN-γ, Treg cells (ANTI-MOUSE/RAT FOXP3 APC), and then stained for 20 min on ice; after cleaning, re-suspending the sample cell sap, and performing on-machine detection on the flow cytometer.

[5] = biological target: T2, PD-1/PD-L1 (HEK293T/mPD-L1) (Mus musculus, UniProt Q9EP73); assay: Flow cytometry PD-1/PD-L1 blocking activity assay of the nanobody coupling drug; format: binding; conditions: mouse PD-1-biotin 20 μg/mL
T2 construct: expressed in transfected cells; host or cells: HEK293T
T2 sequence (Q9EP73 19-290): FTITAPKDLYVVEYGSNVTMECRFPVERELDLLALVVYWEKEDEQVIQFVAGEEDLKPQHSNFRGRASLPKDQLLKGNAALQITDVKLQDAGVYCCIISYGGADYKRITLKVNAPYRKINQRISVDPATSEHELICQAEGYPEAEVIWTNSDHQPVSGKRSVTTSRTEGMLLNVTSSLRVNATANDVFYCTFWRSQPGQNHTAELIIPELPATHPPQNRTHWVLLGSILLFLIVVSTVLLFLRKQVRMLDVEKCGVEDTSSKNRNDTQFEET

[6] = test system: uninduced CT26 tumor cell; assay: Late CT26 subcutaneous tumor-bearing model (tumor volume>200 mm^3); format: in vivo, BALB/c mouse
Method: as §1

T1 sequence (Q9EP73 19-290): as above

B1: Nb16-SZU-101: PD-L1 and TLR7 dual-targeting nanobody coupling drug, Nb16 coupled with SZU-101-NHS active ester (conjugate)
chain: QVQLQESGGGSVQAGGSLRLSCAASGYTDRNYWMGWFRQAPGKEREGVAALYTRTGSTYYADSVKGRFTISHDNAKNTLYLQMNSLKPEDTAVYYCAADSNAYGLAPLHHYWGQGTQVTVSS
modifications: left off: a dimerising Fc or GST
[1]
  PD-L1 binding activity of conjugate compared with Nb16: does not change the binding activity
[2]
  Lifetime (survival): significantly prolong the lifetime
[2]; 10 mg/kg abdominal administration, 5 doses
  Tumor growth inhibition rate: 80.3%
[2]; 10 mg/kg, 5 doses
  Tumor-bearing mice with tumor regression: up to 62.5%
[3]
  Tumor growth after re-tumor of CT26 cells: does not grow the tumor within 40 days
[4]
  Expression of granzyme B and IFN-γ in tumor-infiltrating cytotoxic cells: promote the expression
  Function of tumor-infiltrating cytotoxic cells (CD8+T cells and NK cells): significantly increases
  Infiltration of IFN-γ+CD4+T cells: significantly increased
  Infiltration of TGF-β+macrophages: reduce the infiltration
  Macrophage expression of PD-L1 in tumor microenvironment: promotes macrophage expression of PD-L1
  Re-polarization of tumor-associated macrophages: promote the re-polarization
[4]; tumors of example 8.1
  Maturation of dendritic cells: promotes maturation of dendritic cells
[5]
  PD-1/PD-L1 blocking activity of conjugate compared with Nb16: does not change the blocking activity
[6]
  Lifetime (survival): significantly prolong the lifetime
[6]; 10 mg/kg abdominal administration, 4 doses
  Tumor growth inhibition rate: 78.9%
[6]; 10 mg/kg, 4 doses
  Tumor-bearing mice with tumor regression: 12.5%
